Experimental data reported in the supplement of paper PMC11865577.

Experiments:
Assay in all cases: pull-down binding Z-score (relative to library population); higher = stronger binding
[1] = test system: TO-3-N3 (biotin conjugate); conditions: RNA library: Library-2
Summary of the method: (§1)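 Biotin-conjugated small molecule (100 pmol) on streptavidin beads was incubated with 1 μg of heat-folded Cy5- or Cy3-end-labelled RNA library in phosphate/NaCl/KCl buffer at 25 °C for 60 min. Following three washes, RNA was eluted with hot SDS and hybridised at 55.5 °C for 20 h to a DNA barcode microarray. The binding value is a Z-score computed from the library mean and standard deviation, after subtraction of beads without compound and averaging of barcoded replicate probes with the highest and lowest excluded.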

[2] = test system: G-clamp-N3 (biotin conjugate); conditions: RNA library: Library-1 (pre-miRNA loops + repeats)
Summary of the method: as §1

[3] = test system: TO-N3-2 (biotin conjugate); conditions: RNA library: Library-2
Summary of the method: as §1

[4] = test system: TO-N3 (biotin conjugate); conditions: RNA library: Library-2
Summary of the method: as §1

[5] = test system: TO-3-N3-2 (biotin conjugate); conditions: RNA library: Library-2
Summary of the method: as §1

Row | Sequence | pull-down binding Z-score [1] | pull-down binding Z-score [2] | pull-down binding Z-score [3] | pull-down binding Z-score [4] | pull-down binding Z-score [5]
1 | UUGCUUAAG [hsa-mir-924] | 0.586 | -0.513 | -0.696 | 0.3 | -0.269
2 | UUGGCACAGGGAAGCGAGUCUGCCAA [hsa-mir-195] | 0.0632 | 2.53 | 1.23 | 0.504 | 0.354
3 | UUGGCCUUUAUUUUCAAUGGCAAG [hsa-mir-548b] | 0.655 | -0.0843 | 0.0975 | 0.349 | -0.117
4 | UUGGCGUAGUGAAAUAUAUAUUAAACACCAA [hsa-mir-16-2] | 0.128 | -0.484 | 0.0267 | 0.0274 | 0.371
5 | UUGGCGUUAAGAUUCUAAAAUUAUCUCCAG [hsa-mir-16-1] | -0.825 | -1.03 | -0.642 | -0.952 | -0.307
6 | UUGGGAUCCACCUUUCUCUCGA [hsa-mir-196b] | 0.578 | -0.507 | -0.031 | 0.471 | 0.21
7 | UUGGGGAGGAGCUAAGAAGCCCCUACAGGGCCCAG [hsa-mir-4257] | 0.138 | 1.25 | 1.05 | 0.56 | 0.24
8 | UUGGUCCGUAUGUGUGGUGCCACCGG [hsa-mir-1908] | -0.202 | -0.147 | 0.948 | 0.148 | -0.0706
9 | UUGGUCUUUCCCCUGUGGUCCCAA [hsa-mir-2909] | -0.158 | -0.499 | 0.207 | -0.276 | 0.152
10 | UUGGUGACAGCAGCAGUAGAGUUGCCAG [hsa-mir-6501] | -0.632 | 0.0434 | 0.272 | -0.35 | -0.445
11 | UUGGUGUGUAUUGCCUUGUCAA [hsa-mir-1179] | -0.972 | -0.723 | -0.0369 | -0.924 | -0.217
12 | UUGUAAUAGUGUAGAAUGUUGGUUAAC [hsa-mir-591] | -0.133 | 0.797 | 0.44 | 0.358 | 0.537
13 | UUGUCGUUAAAAAUAGCAA [hsa-mir-548n] | -0.497 | 0.889 | -0.863 | -0.847 | -0.149
14 | UUGUCUCCUCAAGUUGCGACGAGACAG [hsa-mir-4645] | -0.254 | -1.13 | -0.585 | -0.358 | -0.451
15 | UUGUGAAACACAGGUGUUUUUUAACCUCAC [hsa-mir-6841] | 0.199 | -0.237 | 0.257 | 0.172 | 0.0964
16 | UUGUGAUGUUUACCGUUUAAAUCCACGG [hsa-mir-125b-1] | 0.0416 | -0.878 | 0.078 | 0.107 | -0.313
17 | UUGUGGCAAUACAG [hsa-mir-8068] | -0.437 | 0.635 | -0.0186 | -0.425 | -0.166
18 | UUGUGGCUUUGGGUGGAUAUUAAUCAGCCACAG [hsa-mir-383] | 0.257 | 0.747 | 0.0594 | 0.0969 | 0.274
19 | UUGUGUAUGUACUUAGCUGUACUAUA [hsa-mir-1244-1_1244-4_1244-2_1244-3] | -0.689 | 0.509 | -0.486 | -0.627 | -0.417

Row | Sequence | pull-down binding Z-score [1] | pull-down binding Z-score [2] | pull-down binding Z-score [3] | pull-down binding Z-score [4] | pull-down binding Z-score [5]
20 | UUGUGUCCAUCAUGCAACAA [hsa-mir-802] | -0.49 | -1.17 | 0.396 | -0.144 | -0.248
21 | UUGUGUGGUAUCCGUAUAGUCACAG [hsa-mir-10b] | -0.416 | -0.0547 | -0.0857 | -0.277 | -0.634
22 | UUGUUACAUUUUAGGAUUGCUUGCCCCUUGCUCCAAUGGUGCAGGCAGAAGAAAUGCAAACAA [hsa-mir-3973] | -0.0993 | -0.551 | 1.25 | 0.135 | -0.0806
23 | UUGUUCGUUGCAUUUUUAGGAACAA [hsa-mir-3613] | -1.11 | 1.4 | -1.23 | -1.52 | -0.623
24 | UUGUUCUGAUGUACUACGACAA [hsa-mir-7-3] | -0.716 | -1.28 | -0.186 | -0.672 | -0.294
25 | UUGUUGUUAUUACU [hsa-mir-378d-1] | -0.148 | -0.945 | -0.877 | -0.378 | -0.259
26 | UUUAAGACACCCUGUACCUUAAA [hsa-mir-3121] | -0.44 | -1.57 | -0.346 | -0.415 | -0.305
27 | UUUACAUAUAAAUUUCUAUUUGU [hsa-mir-4503] | 0.81 | -1.51 | -0.557 | 0.596 | 0.317
28 | UUUACAUGCUACAGUCAAGAUGCGAA [hsa-mir-15b] | 0.288 | -0.982 | -0.147 | 0.275 | 0.0265
29 | UUUACCAUUACUUUCAAUGGCAAA [hsa-mir-548a-3] | -1.16 | -0.644 | -1.82 | -1.76 | -0.786
30 | UUUACUUUUGGCCUCAAGUCAUUGCAGUAAA [hsa-mir-4796] | -0.696 | -0.453 | -1.18 | -0.832 | -0.635
31 | UUUAGAAAAGAGAAUUCCAAA [hsa-mir-1252] | -0.294 | -1.48 | -0.676 | -0.315 | -0.206
32 | UUUAGAUUUAAAUAGUGAUUGUCUAG [hsa-mir-29b-1] | 0.267 | 0.526 | -0.27 | 0.194 | -0.0424
33 | UUUAGUAUGCCACAUUUCUAAA [hsa-mir-4282] | -0.601 | -1.54 | -0.699 | -0.757 | -0.374
34 | UUUAUGCCUGUUAGCAUGAAAAAAGAGGCUGAGAA [hsa-mir-7515] | -0.5 | -0.395 | 0.0418 | -0.368 | 0.165
35 | UUUCAGAUAACUCGGGA [hsa-mir-4320] | 0.173 | -0.732 | 0.00433 | 0.116 | -0.229
36 | UUUCCCAUUAUUUUAAUUGCGAA [hsa-mir-570] | -0.699 | -0.975 | -1.16 | -0.927 | -0.363
37 | UUUCUAUAACUGGAUGAAA [hsa-mir-498] | -0.457 | -0.372 | -0.778 | -0.488 | -0.431
